Results as given in paper PMC5656893, “Regioselective para‐Carboxylation of Catechols with a Prenylated Flavin Dependent Decarboxylase” (Angewandte Chemie (International Ed. in English), 2017).

B1: EcAroY (Enterobacter cloacae) (protein)
chain: MQNPINDLRSAIALLQRHPGHYIETDHPVDPNAELAGVYRHIGAGGTVKRPTRTGPAMMFNSVKGYPGSRILVGMHASRERAALLLGCVPSKLAQHVGQAVKNPVAPVVVPASQAPCQEQVFYADDPDFDLRKLLPAPTNTPIDAGPFFCLGLVLASDPEDTSLTDVTIHRLCVQERDELSMFLAAGRHIEVFRKKAEAAGKPLPVTINMGLDPAIYIGACFEAPTTPFGYNELGVAGALRQQPVELVQGVAVKEKAIARAEIIIEGELLPGVRVREDQHTNTGHAMPEFPGYCGEANPSLPVIKVKAVTMRNHAILQTLVGPGEEHTTLAGLPTEASIRNAVEEAIPGFLQNVYAHTAGGGKFLGILQVKKRQPSDEGRQGQAALIALATYSELKNIILVDEDVDIFDSDDILWAMTTRMQGDVSITTLPGIRGHQLDPSQSPDYSTSIRGNGISCKTIFDCTVPWALKARFERAPFMEVDPTPWAPELFSDKK
notes: recombinant, purified from E. coli (UbiX co-expressed), reconstituted in vitro with prFMN and oxidised; UbiD family; homohexamer; about 495 residues
B2: KpAroY (Klebsiella pneumoniae subsp. pneumoniae MGH 78578) (protein)
chain: MTAPIQDLRDAIALLQQHDNQYLETDHPVDPNAELAGVYRHIGAGGTVKRPTRIGPAMMFNNIKGYPHSRILVGMHASRQRAALLLGCEASQLALEVGKAVKKPVAPVVVPASSAPCQEQIFLADDPDFDLRTLLPAPTNTPIDAGPFFCLGLALASDPDDASLTDVTIHRLCVQGRDELSMFLAAGRHIEVFRQKAEAAGKPLPITINMGLDPAIYIGACFEAPTTPFGYNELGVAGALRQRPVELVQGVSVPEKAIARAEIVIEGELLPGVRVREDQHTNSGHAMPEFPGYCGGANPSLPVIKVKAVTMRNNAILQTLVGPGEEHTTLAGLPTEASIWNAVEAAIPGFLQNVYAHTAGGGKFLGILQVKKRQPADEGRQGQAALLALATYSELKNIILVDEDVDIFDSDDILWAMTTRMQGDVSITTIPGIRGHQLDPSQTPEYSPSIRGNGISCKTIFDCTVPWALKSHFERAPFADVDPRPFAPEYFARLEKNQGSAK
notes: recombinant, purified from E. coli (UbiX co-expressed), reconstituted in vitro with prFMN and oxidised; UbiD family; about 495 residues

Experiments:
[1] = substrate: O=C(O)c1ccc(O)c(O)c1; experiment: decarboxylation kinetics, purified enzyme reconstituted in vitro with prFMN; type: biochemical, Enterobacter cloacae; details: apparent; prFMN iminium cofactor, after oxidative maturation
[2] = substrate: O=C(O)c1ccc(O)c(O)c1; experiment: as above; type: biochemical, Klebsiella pneumoniae; details: apparent; prFMN iminium cofactor, after oxidative maturation

Row | Protein | Km [1] [µM] | kcat [1] | Km [2] [µM] | kcat [2]
1 | B1 | 61 ± 17 | 4.6±0.4 s^-1 (printed as v max ^app) | – | –
2 | B2 | – | – | 96 ± 23 | 4.7±0.4 s^-1 (printed as v max ^app)
